Measurements published in IntAct's records for PubMed 32296183.

Tests used:
tnip1_human TNIP1 = tnip1_human TNIP1 (UniProt Q15025)
zn639_human ZNF639 = zn639_human ZNF639 (UniProt Q9UID6)
kank2_human KANK2 = kank2_human KANK2 (UniProt Q63ZY3)
car10_human CARD10 = car10_human CARD10 (UniProt Q9BWT7)
zbt14_human ZBTB14 = zbt14_human ZBTB14 (UniProt O43829)
pick1_human PICK1 = pick1_human PICK1 (UniProt Q9NRD5)
thap1_human THAP1 = thap1_human THAP1 (UniProt Q9NVV9)
coha1_human COL17A1 = coha1_human COL17A1 (UniProt Q9UMD9)
Chain of coha1_human COL17A1 (Q9UMD9 whole entry): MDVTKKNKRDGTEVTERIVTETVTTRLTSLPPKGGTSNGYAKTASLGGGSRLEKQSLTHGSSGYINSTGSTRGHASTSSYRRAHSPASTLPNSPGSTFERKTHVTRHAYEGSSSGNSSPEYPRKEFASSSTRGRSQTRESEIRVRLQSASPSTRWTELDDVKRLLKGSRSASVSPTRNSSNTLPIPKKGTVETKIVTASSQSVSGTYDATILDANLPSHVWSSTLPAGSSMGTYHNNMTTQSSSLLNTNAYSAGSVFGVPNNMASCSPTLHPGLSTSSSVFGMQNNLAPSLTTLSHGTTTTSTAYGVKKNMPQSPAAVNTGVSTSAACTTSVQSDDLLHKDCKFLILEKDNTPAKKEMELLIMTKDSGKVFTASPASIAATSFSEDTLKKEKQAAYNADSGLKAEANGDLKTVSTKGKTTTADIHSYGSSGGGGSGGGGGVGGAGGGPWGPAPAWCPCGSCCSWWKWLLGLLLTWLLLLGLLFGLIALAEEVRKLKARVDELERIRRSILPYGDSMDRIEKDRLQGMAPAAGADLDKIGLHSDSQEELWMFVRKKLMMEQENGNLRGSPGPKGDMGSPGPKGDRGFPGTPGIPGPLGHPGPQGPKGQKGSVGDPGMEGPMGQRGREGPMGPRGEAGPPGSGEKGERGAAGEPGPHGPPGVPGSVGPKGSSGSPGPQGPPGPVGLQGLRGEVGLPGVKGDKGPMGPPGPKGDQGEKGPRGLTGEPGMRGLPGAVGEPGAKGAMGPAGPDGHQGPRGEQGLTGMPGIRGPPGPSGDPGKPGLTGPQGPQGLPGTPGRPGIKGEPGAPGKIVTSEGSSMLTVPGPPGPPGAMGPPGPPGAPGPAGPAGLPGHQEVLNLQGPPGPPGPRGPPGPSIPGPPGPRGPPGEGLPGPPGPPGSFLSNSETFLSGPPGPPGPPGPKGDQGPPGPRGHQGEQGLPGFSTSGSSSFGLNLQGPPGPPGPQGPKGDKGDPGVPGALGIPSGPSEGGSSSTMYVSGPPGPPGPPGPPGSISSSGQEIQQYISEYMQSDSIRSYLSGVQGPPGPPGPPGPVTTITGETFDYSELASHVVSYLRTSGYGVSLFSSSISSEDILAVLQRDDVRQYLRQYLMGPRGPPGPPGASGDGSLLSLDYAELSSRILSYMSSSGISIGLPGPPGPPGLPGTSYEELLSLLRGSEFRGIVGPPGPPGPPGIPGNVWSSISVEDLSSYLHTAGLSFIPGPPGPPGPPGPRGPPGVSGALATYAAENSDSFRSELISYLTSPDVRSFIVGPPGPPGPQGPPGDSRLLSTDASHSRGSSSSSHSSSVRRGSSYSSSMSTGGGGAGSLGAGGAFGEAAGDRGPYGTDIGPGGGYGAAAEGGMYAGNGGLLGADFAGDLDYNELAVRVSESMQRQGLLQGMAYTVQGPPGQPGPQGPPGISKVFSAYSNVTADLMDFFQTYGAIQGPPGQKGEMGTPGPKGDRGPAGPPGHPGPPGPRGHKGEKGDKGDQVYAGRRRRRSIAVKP

cntrb_human CNTROB = cntrb_human CNTROB (UniProt Q8N137)
xrcc4_human XRCC4 = xrcc4_human XRCC4 (UniProt Q13426)
Chain of xrcc4_human XRCC4 (Q13426 whole entry): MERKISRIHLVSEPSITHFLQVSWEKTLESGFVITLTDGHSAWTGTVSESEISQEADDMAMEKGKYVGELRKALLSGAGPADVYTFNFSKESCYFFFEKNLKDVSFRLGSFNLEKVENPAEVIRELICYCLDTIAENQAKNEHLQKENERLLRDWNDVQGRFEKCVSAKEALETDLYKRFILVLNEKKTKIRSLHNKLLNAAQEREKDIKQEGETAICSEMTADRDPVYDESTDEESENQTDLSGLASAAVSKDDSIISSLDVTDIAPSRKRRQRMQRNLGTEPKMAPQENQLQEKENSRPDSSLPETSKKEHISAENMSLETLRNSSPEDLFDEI

pnma5_human PNMA5 = pnma5_human PNMA5 (UniProt Q96PV4)
sp4_human SP4 = sp4_human SP4 (UniProt Q02446)
Chain of sp4_human SP4 (Q02446 whole entry): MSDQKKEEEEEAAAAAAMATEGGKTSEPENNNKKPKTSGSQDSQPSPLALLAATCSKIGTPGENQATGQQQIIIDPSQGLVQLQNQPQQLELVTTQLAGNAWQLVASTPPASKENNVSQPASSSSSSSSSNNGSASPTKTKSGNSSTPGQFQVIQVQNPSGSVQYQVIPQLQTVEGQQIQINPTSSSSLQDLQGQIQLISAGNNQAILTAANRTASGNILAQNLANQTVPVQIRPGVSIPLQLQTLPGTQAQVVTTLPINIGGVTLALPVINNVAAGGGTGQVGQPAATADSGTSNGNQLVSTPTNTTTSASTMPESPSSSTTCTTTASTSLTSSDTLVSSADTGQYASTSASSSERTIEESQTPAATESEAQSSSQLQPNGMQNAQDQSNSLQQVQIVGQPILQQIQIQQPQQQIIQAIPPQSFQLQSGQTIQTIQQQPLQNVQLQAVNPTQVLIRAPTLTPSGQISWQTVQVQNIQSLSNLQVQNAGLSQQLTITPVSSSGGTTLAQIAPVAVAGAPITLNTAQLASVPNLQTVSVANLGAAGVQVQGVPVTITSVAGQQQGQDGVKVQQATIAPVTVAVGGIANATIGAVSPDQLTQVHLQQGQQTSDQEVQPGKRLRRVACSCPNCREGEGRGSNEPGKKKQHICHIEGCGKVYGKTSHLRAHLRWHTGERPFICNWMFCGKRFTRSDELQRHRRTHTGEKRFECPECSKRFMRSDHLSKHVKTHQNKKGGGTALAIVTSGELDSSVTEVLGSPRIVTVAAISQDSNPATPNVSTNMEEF

ppip1_human PSTPIP1 = ppip1_human PSTPIP1 (UniProt O43586)
msd4_human MSANTD4 = msd4_human MSANTD4 (UniProt Q8NCY6)
Chain of msd4_human MSANTD4 (Q8NCY6 whole entry): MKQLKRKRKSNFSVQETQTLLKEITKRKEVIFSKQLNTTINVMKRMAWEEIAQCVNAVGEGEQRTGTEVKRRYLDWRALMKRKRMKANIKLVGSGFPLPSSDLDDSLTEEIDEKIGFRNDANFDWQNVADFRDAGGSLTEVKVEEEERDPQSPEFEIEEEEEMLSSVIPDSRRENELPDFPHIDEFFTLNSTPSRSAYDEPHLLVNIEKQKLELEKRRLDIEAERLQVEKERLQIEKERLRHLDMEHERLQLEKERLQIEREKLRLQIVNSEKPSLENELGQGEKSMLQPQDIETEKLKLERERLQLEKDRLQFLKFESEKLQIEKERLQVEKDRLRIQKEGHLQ

crcm_human MCC = crcm_human MCC (UniProt P23508)
trbp2_human TARBP2 = trbp2_human TARBP2 (UniProt Q15633)
tri37_human TRIM37 = tri37_human TRIM37 (UniProt O94972)
tbcd1_human TBC1D1 = tbcd1_human TBC1D1 (UniProt Q86TI0)
klh12_human KLHL12 = klh12_human KLHL12 (UniProt Q53G59)
syph_human SYP = syph_human SYP (UniProt P08247)
fads6_human FADS6 = fads6_human FADS6 (UniProt Q8N9I5)
rprm_human RPRM = rprm_human RPRM (UniProt Q9NS64)
mgst2_human MGST2 = mgst2_human MGST2 (UniProt Q99735)
Chain of mgst2_human MGST2 (Q99735 whole entry): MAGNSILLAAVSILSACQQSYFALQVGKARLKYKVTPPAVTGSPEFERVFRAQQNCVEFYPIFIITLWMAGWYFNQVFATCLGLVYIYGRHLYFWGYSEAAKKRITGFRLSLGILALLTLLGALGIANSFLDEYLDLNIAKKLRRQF

snx2_human SNX2 = snx2_human SNX2 (UniProt O60749)
sft2a_human SFT2D1 = sft2a_human SFT2D1 (UniProt Q8WV19)
sng3_human SYNGR3 = sng3_human SYNGR3 (UniProt O43761)
CCDC43 = CCDC43 (UniProt Q86WV7)
Chain of CCDC43 (Q86WV7 entry or part of it): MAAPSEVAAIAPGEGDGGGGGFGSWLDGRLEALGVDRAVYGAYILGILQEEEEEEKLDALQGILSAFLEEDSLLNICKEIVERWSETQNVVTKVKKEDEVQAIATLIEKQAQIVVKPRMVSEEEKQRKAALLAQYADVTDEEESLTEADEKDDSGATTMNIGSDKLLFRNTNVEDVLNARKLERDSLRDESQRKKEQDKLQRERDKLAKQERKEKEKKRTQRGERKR

flowr_human CACFD1 = flowr_human CACFD1 (UniProt Q9UGQ2)
Chain of flowr_human CACFD1 (Q9UGQ2 whole entry): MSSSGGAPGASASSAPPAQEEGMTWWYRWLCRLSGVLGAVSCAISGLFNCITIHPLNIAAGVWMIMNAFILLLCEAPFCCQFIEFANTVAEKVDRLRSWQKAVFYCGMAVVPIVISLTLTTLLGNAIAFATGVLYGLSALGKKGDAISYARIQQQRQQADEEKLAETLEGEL

Chain of thap1_human THAP1 (Q9NVV9 whole entry): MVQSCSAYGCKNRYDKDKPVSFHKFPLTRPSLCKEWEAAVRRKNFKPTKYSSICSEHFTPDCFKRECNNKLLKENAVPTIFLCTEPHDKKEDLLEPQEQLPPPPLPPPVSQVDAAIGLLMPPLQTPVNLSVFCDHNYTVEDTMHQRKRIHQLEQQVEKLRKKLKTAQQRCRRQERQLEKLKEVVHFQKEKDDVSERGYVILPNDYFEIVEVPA
Chain of IKZF1, Q13422-7 (Q13422 other isoform, or with tags, fused parts or gaps): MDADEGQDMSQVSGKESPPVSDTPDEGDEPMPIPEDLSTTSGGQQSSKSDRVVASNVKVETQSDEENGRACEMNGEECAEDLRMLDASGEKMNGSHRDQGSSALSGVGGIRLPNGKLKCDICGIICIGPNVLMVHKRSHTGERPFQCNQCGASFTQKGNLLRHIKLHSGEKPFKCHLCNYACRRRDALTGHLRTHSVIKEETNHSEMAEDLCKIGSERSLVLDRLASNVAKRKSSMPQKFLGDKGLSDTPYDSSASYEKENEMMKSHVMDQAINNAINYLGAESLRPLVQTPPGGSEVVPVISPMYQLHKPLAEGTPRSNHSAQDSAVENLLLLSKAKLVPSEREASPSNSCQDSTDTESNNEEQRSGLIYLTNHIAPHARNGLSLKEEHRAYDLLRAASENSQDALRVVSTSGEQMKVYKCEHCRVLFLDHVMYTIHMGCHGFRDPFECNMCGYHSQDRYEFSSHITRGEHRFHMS
Chain of SYNGR1, O43759-2 (O43759 other isoform, or with tags, fused parts or gaps): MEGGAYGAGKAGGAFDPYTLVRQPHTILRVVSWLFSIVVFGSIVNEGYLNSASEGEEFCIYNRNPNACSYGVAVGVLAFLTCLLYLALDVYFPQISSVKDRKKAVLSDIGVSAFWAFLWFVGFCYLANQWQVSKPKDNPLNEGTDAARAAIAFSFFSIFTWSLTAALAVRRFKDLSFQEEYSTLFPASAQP

Question: How did the “effect of a mutation on the interaction” value (tnip1_human TNIP1) turn out when “Bifunctional polynucleotide phosphatase/kinase (Homo sapiens), Q96T60 E326K” was run?
Answer: Its value is “with no effect”.

Question: And the “effect of a mutation on the interaction” value (zn639_human ZNF639)?
Answer: Its value is “with no effect”.

Question: What about the “effect of a mutation on the interaction” value (kank2_human KANK2) of the same substance?
Answer: Its value is “disrupting interaction strength”.

Question: What about the “effect of a mutation on the interaction” value (car10_human CARD10) of the same substance?
Answer: The value was “disrupting interaction strength”.

Question: And the “effect of a mutation on the interaction” value (zbt14_human ZBTB14)?
Answer: Its value is “with no effect”.

Question: And the “effect of a mutation on the interaction” value (pick1_human PICK1)?
Answer: The value was “disrupting interaction strength”.

Question: What about the “effect of a mutation on the interaction” value (thap1_human THAP1) of the same substance?
Answer: Its value is “disrupting interaction strength”.

Question: What about the “effect of a mutation on the interaction” value (coha1_human COL17A1) of the same substance?
Answer: The value was “disrupting interaction strength”.

Question: What about the “effect of a mutation on the interaction” value (cntrb_human CNTROB) of the same substance?
Answer: The value was “with no effect”.

Question: What about the “effect of a mutation on the interaction” value (xrcc4_human XRCC4) of the same substance?
Answer: Its value is “with no effect”.

Question: What about the “effect of a mutation on the interaction” value (CCDC14, Q49A88-3) of the same substance?
Answer: Its value is “disrupting interaction strength”.

Question: And the “effect of a mutation on the interaction” value (pnma5_human PNMA5)?
Answer: Its value is “disrupting interaction strength”.

Question: What about the “effect of a mutation on the interaction” value (sp4_human SP4) of the same substance?
Answer: The value was “with no effect”.

Question: And the “effect of a mutation on the interaction” value (ppip1_human PSTPIP1)?
Answer: Its value is “with no effect”.

Question: What about the “effect of a mutation on the interaction” value (msd4_human MSANTD4) of the same substance?
Answer: The value was “disrupting interaction strength”.

Question: And the “effect of a mutation on the interaction” value (crcm_human MCC)?
Answer: Its value is “disrupting interaction strength”.

Question: And the “effect of a mutation on the interaction” value (trbp2_human TARBP2)?
Answer: The value was “disrupting interaction strength”.

Question: What about the “effect of a mutation on the interaction” value (tri37_human TRIM37) of the same substance?
Answer: The value was “with no effect”.

Question: And the “effect of a mutation on the interaction” value (CAMK2B, Q13554-3)?
Answer: Its value is “disrupting interaction strength”.

Question: What about the “effect of a mutation on the interaction” value (tbcd1_human TBC1D1) of the same substance?
Answer: Its value is “with no effect”.

Question: What about the “effect of a mutation on the interaction” value (klh12_human KLHL12) of the same substance?
Answer: The value was “disrupting interaction strength”.

Question: What about the “effect of a mutation on the interaction” value (TMEM239, Q8WW34-2) of the same substance?
Answer: The value was “disrupting interaction strength”.

Question: And the “effect of a mutation on the interaction” value (IKZF1, Q13422-7)?
Answer: Its value is “with no effect”.

Question: And the “effect of a mutation on the interaction” value (syph_human SYP)?
Answer: The value was “with no effect”.

Question: And the “effect of a mutation on the interaction” value (fads6_human FADS6)?
Answer: The value was “with no effect”.

Question: What about the “effect of a mutation on the interaction” value (rprm_human RPRM) of the same substance?
Answer: Its value is “disrupting interaction strength”.

Question: And the “effect of a mutation on the interaction” value (mgst2_human MGST2)?
Answer: Its value is “with no effect”.

Question: What about the “effect of a mutation on the interaction” value (snx2_human SNX2) of the same substance?
Answer: Its value is “with no effect”.

Question: What about the “effect of a mutation on the interaction” value (sft2a_human SFT2D1) of the same substance?
Answer: Its value is “disrupting interaction strength”.

Question: What about the “effect of a mutation on the interaction” value (sng3_human SYNGR3) of the same substance?
Answer: Its value is “with no effect”.

Question: And the “effect of a mutation on the interaction” value (SYNGR1, O43759-2)?
Answer: Its value is “disrupting interaction strength”.

Question: And the “effect of a mutation on the interaction” value (CCDC43)?
Answer: Its value is “disrupting interaction strength”.

Question: And the “effect of a mutation on the interaction” value (flowr_human CACFD1)?
Answer: The value was “disrupting interaction strength”.
